This is an account of results in the supplement of paper PMC7125110.

The chains are these.
B1: glmS ribozyme (parent)
chain: AUAAAAGCGCCAGAACUACAGAAAUGUAGUUGACGAGGAGGAGGUUUAUCGAAUUUUCGGCGGAUGCCUCCAAA

± gives the standard error. Fewer inactive variants are shown than the library holds.

What all share (settings): with glucosamine-6-phosphate
In data set [1] the parent is B1. Kind of data set: self-cleavage kobs at 640 uM GlcN6P; higher = faster cleavage; RNA array. In a few lines: (§1)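 Glucosamine-6-phosphate (40 μM to 10 mM) in HEPES/KCl/Mg(OAc)2 buffer was flowed over sequenced MiSeq chips, and tiles were imaged over ~14 h. Barcoded ribozyme variants there had been transcribed in situ by E. coli RNA polymerase and were tracked through a hybridised Cy3 probe at 37 °C. One- or two-exponential decay fits to per-tile medians, normalised to baseline and to non-cleaving reference variants, gave kobs. kcat and KM came from weighted Michaelis–Menten fits across concentrations.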

Data set [2] covers variants of B1. Kind of data set: self-cleavage kobs at 2500 uM GlcN6P; higher = faster cleavage; RNA array. The procedure, abridged: as §1
Variants of B1 are the subject of data set [3]. Kind of data set: self-cleavage kobs at 10000 uM GlcN6P; higher = faster cleavage; RNA array. In a few lines:
as §1

With G9C A53G U65C, the “self-cleavage kobs at 640 uM GlcN6P” value with glucosamine-6-phosphate [1] was below 1e-05 s⁻¹. Besides, the “self-cleavage kobs at 2500 uM GlcN6P” value in the data set with glucosamine-6-phosphate [2] was below 1e-05 s⁻¹.
With G13U G51U U55A, the “self-cleavage kobs at 640 uM GlcN6P” value with glucosamine-6-phosphate [1] was below 1e-05 s⁻¹.
Same read-out and setting: next, A15U U30A A53U C58A U65C U69A C71G: 4.92e-05 ± 2e-05 s⁻¹.
In the case of G13U A14G A42C, in the data set with glucosamine-6-phosphate [1], the “self-cleavage kobs at 640 uM GlcN6P” value is below 1e-05 s⁻¹. Besides, the “self-cleavage kobs at 2500 uM GlcN6P” value with glucosamine-6-phosphate [2] is below 1e-05 s⁻¹.
Take A14G A39U G41U G51A G59A: the “self-cleavage kobs at 640 uM GlcN6P” value with glucosamine-6-phosphate [1] was below 1e-05 s⁻¹.
C34G G35A G63U: the “self-cleavage kobs at 640 uM GlcN6P” value with glucosamine-6-phosphate [1] is below 1e-05 s⁻¹. Moreover, the “self-cleavage kobs at 10000 uM GlcN6P” value in the data set with glucosamine-6-phosphate [3] is below 1e-05 s⁻¹.
C8G G9U A52U: the “self-cleavage kobs at 640 uM GlcN6P” value in the data set with glucosamine-6-phosphate [1] was below 1e-05 s⁻¹. The “self-cleavage kobs at 2500 uM GlcN6P” value in the data set with glucosamine-6-phosphate [2] was below 1e-05 s⁻¹.
Turning to C8A A53U C58A G59U, the “self-cleavage kobs at 640 uM GlcN6P” value with glucosamine-6-phosphate [1] is below 1e-05 s⁻¹.
For G38U A48U C61G C71U, the “self-cleavage kobs at 640 uM GlcN6P” value in the data set with glucosamine-6-phosphate [1] is below 1e-05 s⁻¹.
On the same count and under the same terms, for C10A G44A G59U the value was below 1e-05 s⁻¹.
In the case of U30G U47C, the “self-cleavage kobs at 640 uM GlcN6P” value with glucosamine-6-phosphate [1] is 0.000187 ± 6.5e-05 s⁻¹. The “self-cleavage kobs at 2500 uM GlcN6P” value with glucosamine-6-phosphate [2] came to 0.00013 ± 6.3e-05 s⁻¹.
Take C34G G41U G51C C71G: the “self-cleavage kobs at 640 uM GlcN6P” value in the data set with glucosamine-6-phosphate [1] was below 1e-05 s⁻¹.
The same measure, in the same setting: next, A12U G32C U47G C70A: 0.0007 ± 0.00018 s⁻¹; A14G C61G G66U C67G: 0.000103 ± 2.7e-05 s⁻¹.
Take G9A C61G C68A: the “self-cleavage kobs at 640 uM GlcN6P” value with glucosamine-6-phosphate [1] was below 1e-05 s⁻¹. Further, the “self-cleavage kobs at 2500 uM GlcN6P” value with glucosamine-6-phosphate [2] is below 1e-05 s⁻¹.
As to U47A A48U C70U, in the data set with glucosamine-6-phosphate [1], the “self-cleavage kobs at 640 uM GlcN6P” value was 0.000162 ± 5.1e-05 s⁻¹. Besides, the “self-cleavage kobs at 2500 uM GlcN6P” value with glucosamine-6-phosphate [2] amounted to 0.000141 ± 3.3e-05 s⁻¹. In addition, the “self-cleavage kobs at 10000 uM GlcN6P” value in the data set with glucosamine-6-phosphate [3] was determined as 0.000573 ± 0.00021 s⁻¹.
A14G U49A G63U: the “self-cleavage kobs at 640 uM GlcN6P” value with glucosamine-6-phosphate [1] was below 1e-05 s⁻¹.
Consider A14U G44U U69C C71A, for which the “self-cleavage kobs at 640 uM GlcN6P” value with glucosamine-6-phosphate [1] is below 1e-05 s⁻¹. For the same variant, the “self-cleavage kobs at 10000 uM GlcN6P” value in the data set with glucosamine-6-phosphate [3] was below 1e-05 s⁻¹.
Consider G13C G51A U69G, for which, in the data set with glucosamine-6-phosphate [1], the “self-cleavage kobs at 640 uM GlcN6P” value is 4.99e-05 ± 1.8e-05 s⁻¹.
Same read-out and setting: for G37U G38U C68A the value was 0.00155 ± 0.00045 s⁻¹.
A6U A39G A48G: the “self-cleavage kobs at 640 uM GlcN6P” value with glucosamine-6-phosphate [1] is below 1e-05 s⁻¹. Further, the “self-cleavage kobs at 2500 uM GlcN6P” value with glucosamine-6-phosphate [2] was below 1e-05 s⁻¹.
Regarding G44A A53U U54G C61U, the “self-cleavage kobs at 640 uM GlcN6P” value with glucosamine-6-phosphate [1] was below 1e-05 s⁻¹.
G44U G62A C70U: in the data set with glucosamine-6-phosphate [1], the “self-cleavage kobs at 640 uM GlcN6P” value was below 1e-05 s⁻¹.
With U31G C50A U56G U69G, the “self-cleavage kobs at 640 uM GlcN6P” value with glucosamine-6-phosphate [1] is 0.000115 ± 3.6e-05 s⁻¹. Further, the “self-cleavage kobs at 2500 uM GlcN6P” value in the data set with glucosamine-6-phosphate [2] was 7.11e-05 ± 1.8e-05 s⁻¹.
For C16G G62U G66C, the “self-cleavage kobs at 640 uM GlcN6P” value with glucosamine-6-phosphate [1] was below 1e-05 s⁻¹.
Take C11A C61U: in the data set with glucosamine-6-phosphate [1], the “self-cleavage kobs at 640 uM GlcN6P” value is below 1e-05 s⁻¹. Also, the “self-cleavage kobs at 2500 uM GlcN6P” value in the data set with glucosamine-6-phosphate [2] was below 1e-05 s⁻¹. Moreover, the “self-cleavage kobs at 10000 uM GlcN6P” value with glucosamine-6-phosphate [3] is below 1e-05 s⁻¹.
As for G7C G41U C67G, in the data set with glucosamine-6-phosphate [1], the “self-cleavage kobs at 640 uM GlcN6P” value was below 1e-05 s⁻¹.
As to G13U A15G A52C, in the data set with glucosamine-6-phosphate [1], the “self-cleavage kobs at 640 uM GlcN6P” value is below 1e-05 s⁻¹. The “self-cleavage kobs at 2500 uM GlcN6P” value with glucosamine-6-phosphate [2] was below 1e-05 s⁻¹.
As for C10U G32C G62U, the “self-cleavage kobs at 640 uM GlcN6P” value in the data set with glucosamine-6-phosphate [1] was below 1e-05 s⁻¹. The “self-cleavage kobs at 2500 uM GlcN6P” value with glucosamine-6-phosphate [2] was below 1e-05 s⁻¹.
With U49C G51A, the “self-cleavage kobs at 640 uM GlcN6P” value with glucosamine-6-phosphate [1] was below 1e-05 s⁻¹. In the data set with glucosamine-6-phosphate [3], the “self-cleavage kobs at 10000 uM GlcN6P” value was below 1e-05 s⁻¹.
Turning to C11U G32C U47C C50A, the “self-cleavage kobs at 640 uM GlcN6P” value with glucosamine-6-phosphate [1] is below 1e-05 s⁻¹.
For the variant A6U G35A G43U, in the data set with glucosamine-6-phosphate [1], the “self-cleavage kobs at 640 uM GlcN6P” value is below 1e-05 s⁻¹. In addition, the “self-cleavage kobs at 2500 uM GlcN6P” value with glucosamine-6-phosphate [2] is below 1e-05 s⁻¹.
For the variant C10U G41C G44U U55C C58U, the “self-cleavage kobs at 640 uM GlcN6P” value with glucosamine-6-phosphate [1] is below 1e-05 s⁻¹.
The same measure, in the same setting: for A6U A12G A14U the value was below 1e-05 s⁻¹.
With C11U G62U, the “self-cleavage kobs at 640 uM GlcN6P” value in the data set with glucosamine-6-phosphate [1] was below 1e-05 s⁻¹. Further, the “self-cleavage kobs at 10000 uM GlcN6P” value with glucosamine-6-phosphate [3] is below 1e-05 s⁻¹.
